Data taken from the nanobody polyreactivity screen of Harvey et al. (2022).

Experiment: yeast display, Sf9 membrane polyspecificity reagent, FACS + sequencing; frameworks hold sequencing errors
In short: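 Nanobodies from a synthetic yeast display library (Saccharomyces cerevisiae BJ5465), induced 36–48 hours with galactose, were stained 1 hour at 4 °C with 10% biotinylated, detergent-solubilized Sf9 membrane reagent, enriched on streptavidin microbeads, then FACS-sorted. Anti-HA (expression) and streptavidin (reagent binding) fluorescence set low and high (top ~1%) gates. Polyreactivity labels come from the gate of origin. Genes were colony-PCR amplified, MiSeq 2 × 250 sequenced and filtered by CDR length.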

## QVQLVESGGGLVQAGGSLRLSCAASGSTFDYYDMGWYRQAPGKERELVATITSGGSTNYADSVKGRFTISRDNAKNNVYLQMNILKTEDTAVFYCASDIGGDGEGYDYWGQGTQVTVSS
  polyreactivity (PSR sort gate): low polyreactivity

## QVQLVESGGGLVQAGGSLRLSCAASGSTFDYYDMGWYRQSPGKERELVAAISSGGDSTYYADSVKGRFTISRDNAKNTVYLQMNSLKPEDTAVYNCAAAVYYGQSVWYYYWGQGTQVTVSS
  polyreactivity (PSR sort gate): high polyreactivity

## QVQLVESGGGLVQAGGSLRLSCAASGSTFDYYVMGWYRQAPGKERELVAAISHNAGSTYYADSVKGRFTISRDNAKNTVYLQMNSLKPEDTAVYYCAAPDYRNGVRYPLDYWGQGTQVTVSS
  polyreactivity (PSR sort gate): low polyreactivity

## QVQLVESGGGLVQAGGSLRLSCAASGSTFEDYSMGWYRQAPGKERELVAAISHIGGSTYYADSVKGRFTISRDNAKNTVYLQMNSLKPDDTAVYYCAKGGFSSKFDYWGQGTQVTVSS
  polyreactivity (PSR sort gate): low polyreactivity

## QVQLVESGGGLVQAGGSLRLSCAASGSTFEGNAMGWYRQAPGKERELVAAISSGGRTYYADSVKGRFTISRDNAKNTVYLQMNSLKPEDTAVYYCAAYVRRGFDWGQGTQVTVSS
  polyreactivity (PSR sort gate): high polyreactivity

## QVQLVESGGGLVQAGGSLRLSCAASGSTFEGNVMGWDRQATGKERELVATITGSGGRTYADSVKGRFTISRDNAKNTVYLQMNSLKPEDTAVYYCYAVSTASDEYDYWGQGTQVTVSS
  polyreactivity (PSR sort gate): low polyreactivity

## QVQLVESGGGLVQAGGSLRLSCAASGSTFEKNAMGWYRQAPGKEREFVAAISRRGGSTYYADSVKGRFTISRDNAKNTVYLQMNSLKPEDTAVYYCAAQQLTWYSYRGDYWGQGTQVTVSS
  polyreactivity (PSR sort gate): high polyreactivity

## QVQLVESGGGLVQAGGSLRLSCAASGSTFEPYAMGWYRQAPGKERELVAAISSGGSTSYADSVKGRFTISRDNAKNTVYLQMNSLKPEDTAVYYCAKRWRSYRHEDYGYWGQGTQVTVSS
  polyreactivity (PSR sort gate): low polyreactivity

## QVQLVESGGGLVQAGGSLRLSCAASGSTFEPYVMGWYRQAPGKERELVAAITYSGGRTYYADSVKGRFTISRDNAKNTVYLQMNSLKPEDTAVYYCAKVDRSYGYSRYWFKYGYWGQGTQVTVSS
  polyreactivity (PSR sort gate): low polyreactivity

## QVQLVESGGGLVQAGGSLRLSCAASGSTFEQYAMGGYRQAPGKEKELDAAISGSGTRTYYADSVKGRFTISRDNAKNTVYLQMNSLKAEDTAVYYCAARFSYPAILQAYYHWGQGTQVTVSS
  polyreactivity (PSR sort gate): high polyreactivity

## QVQLVESGGGLVQAGGSLRLSCAASGSTFESNAMGWYRQAPGKERELVAAISRGGNTYYADSVKGRFTISRDNAKITVYLQMNSLKPEDTAVYYCNVDRGKPVPPSEYWGQGTQVTVSS
  polyreactivity (PSR sort gate): low polyreactivity

## QVQLVESGGGLVQAGGSLRLSCAASGSTFESNTMGWYSQAPGKERELVAAISYSGGRTYYADSVKGRFTISRDNAKNTVYLQMNSLKPEDTAVYYCAARWSVSYQYWGQGTQVTVSS
  polyreactivity (PSR sort gate): high polyreactivity

## QVQLVESGGGLVQAGGSLRLSCAASGSTFETNAMGWYRQAPGTERELVAAIRWSTGNTYYADSVKGRFTISRDNAKNTVYLQMNSLKPEDTAVYYCAAYKGKHYNEGYWGQGTQVTVSS
  polyreactivity (PSR sort gate): low polyreactivity

## QVQLVESGGGLVQAGGSLRLSCAASGSTFEYNSMGWYRQAPGKERELVGSSTNYADSVKGRFTISRDNAKNTVYLQMNSLLPEYTAVYYCAREQGVNRNHDYWGQGTQVTVSS
  polyreactivity (PSR sort gate): low polyreactivity

## QVQLVESGGGLVQAGGSLRLSCAASGSTFEYYAMGWYRQAPGKERELVAAISWSGGSTYYADSVKGRFTISRDNAKNTVYLQMNSLKPEDTAVYDCATDTGTSFYGINYGYDYWGQGTQVTVSS
  polyreactivity (PSR sort gate): low polyreactivity

## QVQLVESGGGLVQAGGSLRLSCAASGSTFFDYAMGWYRKAPGKERELVAAISRSGDTNYADSVKGRFTISRDNAKNTVYLQMKSLKPEDTAVYYCAKDWAYRRHWVGFYYWGQGTQVTVSS
  polyreactivity (PSR sort gate): low polyreactivity

## QVQLVESGGGLVQAGGSLRLSCAASGSTFFEYTMGWYRRAPGKEREFVADIRGRDGSTSYADSVKGRFTISRDNAKNTVYLQMNSLKPEDTAVYYCATEYFPQYQSTGWYDYWGQGTQVTVSS
  polyreactivity (PSR sort gate): low polyreactivity

## QVQLVESGGGLVQAGGSLRLSCAASGSTFFGYAMGRYRQAPGKERELVAAISYRGGSTYYADSVKGRFTISRDNAKNTVYLQMNSLKPEDTAVYYCAATHGPTGSYYWGQGTQVTVSS
  polyreactivity (PSR sort gate): high polyreactivity

## QVQLVESGGGLVQAGGSLRLSCAASGSTFFGYDMGWYRQAPGKERELVATINSGGSTYYADSVKGRFTISRDNAKNTVYLQMNSLKPEDTAVYYCAARPSYLYPYDRTGEYDYWGQGTQVTVSS
  polyreactivity (PSR sort gate): high polyreactivity

## QVQLVESGGGLVQAGGSLRLSCAASGSTFFHYVMGWYRQAPGKEREVVAAIRWSGGRTRYADSVKRRFTISRDNAKITVYLQMNSLIPEDTAVFYCAAYRLSKPFYKYDYWGQGTQVTVSS
  polyreactivity (PSR sort gate): high polyreactivity

## QVQLVESGGGLVQAGGSLRLSCAASGSTFFHYVMGWYRQAPWKERELVAAIRWSGGRTRYADSVKGRFTISRDNAKNTVYLQMNSLKPEDTAVYYCAAYRLSKPFYKYDYWGQGTQVTVSS
  polyreactivity (PSR sort gate): high polyreactivity

## QVQLVESGGGLVQAGGSLRLSCAASGSTFFIWNAMGWYRQAPGKERELVAGITRGGSTNYADSVKGRFTISRDNAKNTVYLQMNSLKPEDTAVYYCAADGTVVYGYDYWGQGTQVTVSS
  polyreactivity (PSR sort gate): low polyreactivity

## QVQLVESGGGLVQAGGSLRLSCAASGSTFFIYAMGWYRQAPGKERELVAAISGSGGTTYYADSVKGRFTISRDNAKNTVYLQMNSLKPEDTAVYYCNKDYYPGSYDYWGQGTQVTVSS
  polyreactivity (PSR sort gate): low polyreactivity

## QVQLVESGGGLVQAGGSLRLSCAASGSTFFLNAMGWYRQAPGKESEFVAAISYTSTSTYYADSVKGRFTISRDNAKNTVYLQMNSLKPEDTAVYYCAVDAAGWYYTVETGDYAEDYWGQGTQVTVSS
  polyreactivity (PSR sort gate): low polyreactivity

## QVQLVESGGGLVQAGGSLRLSCAASGSTFFLYAMGWYRQAPGKERELVAAINYIGGTYYADSVKGRFTISRDNAKNTVYLQMNSLKPEDTAVYYCAASYVGTIAGMDYWGQGTQVTVSS
  polyreactivity (PSR sort gate): low polyreactivity

## QVQLVESGGGLVQAGGSLRLSCAASGSTFFLYAMGWYRQAPGKERELVAVITWRGGRTYYADSVKGRFTISRDNAKNTVYLQMNSMKPEDTAVYYCAAEYYWPVKYYYWGQGTQVTVSS
  polyreactivity (PSR sort gate): high polyreactivity

## QVQLVESGGGLVQAGGSLRLSCAASGSTFFNYAMGWYRQAPGKERELVAAITGSGGRTYYADSVKGRFTISRDNAKNTVYLQMNSLKPEDTAVYYCAASATYDPHDYWGQGTQVTVSS
  polyreactivity (PSR sort gate): high polyreactivity

## QVQLVESGGGLVQAGGSLRLSCAASGSTFFPNGMGWYRQAPGKERELVAAITQDGGSTYYADSVKGRFTISRDKAKNTVYLQMNSLKPEDTAVYYCAASAGPYYEYGYWGQGTQVTVSS
  polyreactivity (PSR sort gate): low polyreactivity

## QVQLVESGGGLVQAGGSLRLSCAASGSTFFPYAMGWYRPAPGKERELVAAIRWSGGRTYYADSVKGRFTISRDNAKNTVYLQMNSLKPEDTAVYYCAADKYLDYDYWGQGTQVTVSS
  polyreactivity (PSR sort gate): high polyreactivity

## QVQLVESGGGLVQAGGSLRLSCAASGSTFFPYAMGWYRQAPGKERELVATINYSGGGTYYADSVKGRFTISRDNAKNTVYLQMNSLKPEDTAVYYCANTLARFDRGYYWGQGTQVTVSS
  polyreactivity (PSR sort gate): low polyreactivity

## QVQLVESGGGLVQAGGSLRLSCAASGSTFFQYAMGWYRPAPGKERELVAAITTSGGRTYYADSVKGRFTISRDNAKNTVYLQMNSLKPEDTAVYYCAGYNYWGQGTQVTVSS
  polyreactivity (PSR sort gate): high polyreactivity

## QVQLVESGGGLVQAGGSLRLSCAASGSTFFRNAMGWYRQAPGKERELVAGITSGVTTYYADSVKGRFTISRDNAKNTVYLQMNSLKPEDTAVYYCAVYWRGRGAFTYGSWGQGTQVTVSS
  polyreactivity (PSR sort gate): high polyreactivity

## QVQLVESGGGLVQAGGSLRLSCAASGSTFFRYAMGLYRQAPGKEREFVAAITSSGGNTYYADSVKGRFTISRDNAKNTVYLQMNSLKPEDTAVYYCAAVWYSPYVKYNYWGQGTQVTVSS
  polyreactivity (PSR sort gate): low polyreactivity

## QVQLVESGGGLVQAGGSLRLSCAASGSTFFRYAMGWYRQAPGKEREFVAAISKRGGSTHYADSVKGRFTISRDNAKNTVYLQMNSLKPEDTAVYYCAASSFTSSYNYWGQGTQVTVSS
  polyreactivity (PSR sort gate): high polyreactivity

## QVQLVESGGGLVQAGGSLRLSCAASGSTFFSNTMGWYRQAPGIERELVAAITSRGGRTYYADSVKGRFTISRDNAKNSVYLQMNSLKPEDTAVYYCAARFVLHGVYLKFYWGQGTQLTVSS
  polyreactivity (PSR sort gate): high polyreactivity

## QVQLVESGGGLVQAGGSLRLSCAASGSTFFSYDMGWYRQAPGKERELVATISTSVGRTYYADSVKGRFTISRDNAKNTVYLQMNSLKPEDTAVYYCATVGYLYTPVVVTWWDWGDYWGQGTQVTVSS
  polyreactivity (PSR sort gate): low polyreactivity

## QVQLVESGGGLVQAGGSLRLSCAASGSTFFSYVMGWYRQAPGKERELVAAISNGGSTYYADSVKGRFTISRDNAKNSVYLQMNSLKPEDTAVYYCAAGGRRKRGNYWGQGTQVTVSS
  polyreactivity (PSR sort gate): high polyreactivity

## QVQLVESGGGLVQAGGSLRLSCAASGSTFFTNVKGWYRQAPGKERELVAVIRWRGSDTYYADSVKGRFTISRDNAKNTVYLQMKSLKPEDTAFYYCNAKESFYPTTGEQGYSYAYWGQGTQLTVSS
  polyreactivity (PSR sort gate): low polyreactivity

## QVQLVESGGGLVQAGGSLRLSCAASGSTFFTYTMGWYRQAPGKERELVAAISSGGSTYYADSVKGRFTISRDNAKNTVYLQMNSLKPEDTAVYYLLRGQGTQVTVSS
  polyreactivity (PSR sort gate): low polyreactivity

## QVQLVESGGGLVQAGGSLRLSCAASGSTFFVNAMGWYRQAPGKERELVASITVSSGRTYYADSVKGRFTISRDNAKNTVYLQMNSLKPEDTAVYYCAARHLYWRREGYYWGQGYQVTVSS
  polyreactivity (PSR sort gate): high polyreactivity

## QVQLVESGGGLVQAGGSLRLSCAASGSTFFWYAMGWYRQEPGKERELVAAINWRGDRTYYADSVKGRFTISRDNAKNTVYLQMNSLKPEDTAVYYCNAVRVHAYSTGEYGYWGQGTQVTVSS
  polyreactivity (PSR sort gate): high polyreactivity

## QVQLVESGGGLVQAGGSLRLSCAASGSTFFYYAMGWYRQAPGKERELVAAITSSGGRTYYADSVKGRFTISRDNAKNTVYLQMNSLKPEDTAVYYCAARDYRQSRYEYWGQGTQVTVSS
  polyreactivity (PSR sort gate): high polyreactivity

## QVQLVESGGGLVQAGGSLRLSCAASGSTFGANAMGWYRQAPGKEREFVAAISGSGTTTYYADSVKGRFTISRDNAKNTVYLQINSLKPEDTAVYYCAKTRKAHWLEYWGQGTQVTVSS
  polyreactivity (PSR sort gate): low polyreactivity
